Measurements as given in article PMC5993198.

Target: rBac-RelA (human? (hRelA; expressed in Sf9), UniProt Q04206 1-551)
Assay: fluorescence anisotropy

Chain of rBac-RelA (Q04206 whole entry): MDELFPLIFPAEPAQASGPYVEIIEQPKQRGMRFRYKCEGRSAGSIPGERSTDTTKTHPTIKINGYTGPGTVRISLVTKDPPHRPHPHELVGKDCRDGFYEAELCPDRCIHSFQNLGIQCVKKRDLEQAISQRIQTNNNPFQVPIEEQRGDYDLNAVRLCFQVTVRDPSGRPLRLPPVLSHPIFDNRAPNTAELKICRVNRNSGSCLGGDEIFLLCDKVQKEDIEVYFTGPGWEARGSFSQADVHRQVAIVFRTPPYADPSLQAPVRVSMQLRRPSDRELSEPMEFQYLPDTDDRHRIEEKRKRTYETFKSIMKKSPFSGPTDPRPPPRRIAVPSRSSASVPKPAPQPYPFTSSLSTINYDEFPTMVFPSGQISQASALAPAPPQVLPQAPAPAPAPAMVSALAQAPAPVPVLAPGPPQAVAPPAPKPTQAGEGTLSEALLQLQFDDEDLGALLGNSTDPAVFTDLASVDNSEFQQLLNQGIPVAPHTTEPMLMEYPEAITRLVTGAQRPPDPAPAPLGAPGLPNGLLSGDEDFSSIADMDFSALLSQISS

B1: fluorescein ssDNA negative control containing κB site (ssDNA)
DNA: ATCGTGGGAAAGTTTCTGGATATTCCCTTGGA
B1: no binding.
